The labels stand for the following.
B1: PTPRD (parent)
chain: FICQATGDPRPKIVWNKKGKKVSN
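Note: lentivirally expressed fusions sorted by FACS into six bins by GFP to DsRed ratio, PSI derived from sequencing read proportions per bin multiplied by bin number.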

The variants in the data set derive from B1. Put plainly: protein stability index of a GFP-peptide fusion (GPS, HEK-293T) (PSI 1-6); higher = more stable. As to conditions: c terminus: a fixed tail appended.
Consider WICQATGDPRPKIVWNKKGKKVSN [F1W], for which the protein stability index was found to be 2.23. In the case of DICQATGDPRPKIVWNKKGKKVSN [F1D], the protein stability index is 3.65. For YICQATGDPRPKIVWNKKGKKVSN [F1Y] the value was 2.26; for HICQATGDPRPKIVWNKKGKKVSN [F1H], 3.71; for GICQATGDPRPKIVWNKKGKKVSN [F1G], 4.53.

As to RICQATGDPRPKIVWNKKGKKVSN [F1R], the protein stability index was determined as 3.66. Take LICQATGDPRPKIVWNKKGKKVSN [F1L]: the protein stability index stood at 2.15. For the variant VICQATGDPRPKIVWNKKGKKVSN [F1V], the protein stability index is 2.75. Then NICQATGDPRPKIVWNKKGKKVSN [F1N], with 3.89; and AICQATGDPRPKIVWNKKGKKVSN [F1A], with 3.28. For MICQATGDPRPKIVWNKKGKKVSN [F1M], the protein stability index amounted to 2.92. Then IICQATGDPRPKIVWNKKGKKVSN [F1I], with 2.35; and TICQATGDPRPKIVWNKKGKKVSN [F1T], with 3.08. For KICQATGDPRPKIVWNKKGKKVSN [F1K] the value was 3.12; for QICQATGDPRPKIVWNKKGKKVSN [F1Q], 3.42.

As to CICQATGDPRPKIVWNKKGKKVSN [F1C], the protein stability index turned out to be 3.2.

Turning to SICQATGDPRPKIVWNKKGKKVSN [F1S], the protein stability index worked out at 3.3. For EICQATGDPRPKIVWNKKGKKVSN [F1E] the value was 3.2; for PICQATGDPRPKIVWNKKGKKVSN [F1P], 3.76; for FILQATGDPRPKIVWNKKGKKVSN [C3L], 1.86. Then FIVQATGDPRPKIVWNKKGKKVSN [C3V], with 2.31; and FIHQATGDPRPKIVWNKKGKKVSN [C3H], with 2.56; and FITQATGDPRPKIVWNKKGKKVSN [C3T], with 1.98.

Regarding FIDQATGDPRPKIVWNKKGKKVSN [C3D], the protein stability index was 2.85. Turning to FIAQATGDPRPKIVWNKKGKKVSN [C3A], the protein stability index was determined as 2.55. For FIQQATGDPRPKIVWNKKGKKVSN [C3Q] the value was 2.05; for FIPQATGDPRPKIVWNKKGKKVSN [C3P], 3.54; for FIMQATGDPRPKIVWNKKGKKVSN [C3M], 1.75. FIRQATGDPRPKIVWNKKGKKVSN [C3R]: the protein stability index came out at 2.06. For FISQATGDPRPKIVWNKKGKKVSN [C3S] the value was 1.92. Take FIFQATGDPRPKIVWNKKGKKVSN [C3F]: the protein stability index came to 1.92. Then FIEQATGDPRPKIVWNKKGKKVSN [C3E], with 3.04; and FIYQATGDPRPKIVWNKKGKKVSN [C3Y], with 1.15. Then FIIQATGDPRPKIVWNKKGKKVSN [C3I], with 2.38. In the case of FIGQATGDPRPKIVWNKKGKKVSN [C3G], the protein stability index stood at 2.2. For FINQATGDPRPKIVWNKKGKKVSN [C3N] the value was 1.88; for FIKQATGDPRPKIVWNKKGKKVSN [C3K], 2.57.

Take FIWQATGDPRPKIVWNKKGKKVSN [C3W]: the protein stability index was determined as 1.97. With FICQHTGDPRPKIVWNKKGKKVSN [A5H], the protein stability index is 2.2.

On to FICQDTGDPRPKIVWNKKGKKVSN [A5D], for which the protein stability index was 2.39. For FICQITGDPRPKIVWNKKGKKVSN [A5I] the value was 1.77. On to FICQGTGDPRPKIVWNKKGKKVSN [A5G], for which the protein stability index turned out to be 2.07. As for FICQKTGDPRPKIVWNKKGKKVSN [A5K], the protein stability index is 3.03. Then FICQMTGDPRPKIVWNKKGKKVSN [A5M], with 2.02. Regarding FICQNTGDPRPKIVWNKKGKKVSN [A5N], the protein stability index stood at 2.09.

As to FICQWTGDPRPKIVWNKKGKKVSN [A5W], the protein stability index was 2.35. For FICQSTGDPRPKIVWNKKGKKVSN [A5S] the value was 1.83; for FICQQTGDPRPKIVWNKKGKKVSN [A5Q], 1.95; for FICQPTGDPRPKIVWNKKGKKVSN [A5P], 2.04. For FICQVTGDPRPKIVWNKKGKKVSN [A5V] the value was 2.26.

On to FICQETGDPRPKIVWNKKGKKVSN [A5E], for which the protein stability index turned out to be 1.92. As to FICQTTGDPRPKIVWNKKGKKVSN [A5T], the protein stability index was 2.08. Then FICQLTGDPRPKIVWNKKGKKVSN [A5L], with 2.01; and FICQCTGDPRPKIVWNKKGKKVSN [A5C], with 2.12; and FICQRTGDPRPKIVWNKKGKKVSN [A5R], with 2.24. FICQFTGDPRPKIVWNKKGKKVSN [A5F]: the protein stability index amounted to 2.19. Then FICQYTGDPRPKIVWNKKGKKVSN [A5Y], with 2.25; and FICWATGDPRPKIVWNKKGKKVSN [Q4W], with 2.95; and FICCATGDPRPKIVWNKKGKKVSN [Q4C], with 1.8.

As for FICYATGDPRPKIVWNKKGKKVSN [Q4Y], the protein stability index is 1.37. For FICDATGDPRPKIVWNKKGKKVSN [Q4D] the value was 1.87; for FICLATGDPRPKIVWNKKGKKVSN [Q4L], 2.17.

Take FICTATGDPRPKIVWNKKGKKVSN [Q4T]: the protein stability index was 3.05. For FICSATGDPRPKIVWNKKGKKVSN [Q4S] the value was 1.58; for FICEATGDPRPKIVWNKKGKKVSN [Q4E], 2.18. In the case of FICGATGDPRPKIVWNKKGKKVSN [Q4G], the protein stability index is 1.88. Then FICRATGDPRPKIVWNKKGKKVSN [Q4R], with 1.56; and FICIATGDPRPKIVWNKKGKKVSN [Q4I], with 1.84. For FICHATGDPRPKIVWNKKGKKVSN [Q4H] the value was 2.33; for FICVATGDPRPKIVWNKKGKKVSN [Q4V], 2.08. Turning to FICNATGDPRPKIVWNKKGKKVSN [Q4N], the protein stability index came out at 2.03. As to FICKATGDPRPKIVWNKKGKKVSN [Q4K], the protein stability index stood at 2.42. For FICPATGDPRPKIVWNKKGKKVSN [Q4P] the value was 2.14. Then FICAATGDPRPKIVWNKKGKKVSN [Q4A], with 1.61. For FICFATGDPRPKIVWNKKGKKVSN [Q4F] the value was 2.25; for FICMATGDPRPKIVWNKKGKKVSN [Q4M], 1.29.

Consider FDCQATGDPRPKIVWNKKGKKVSN [I2D], for which the protein stability index worked out at 4.73. Then FGCQATGDPRPKIVWNKKGKKVSN [I2G], with 4.1; and FVCQATGDPRPKIVWNKKGKKVSN [I2V], with 2.34. For FNCQATGDPRPKIVWNKKGKKVSN [I2N] the value was 4.27; for FSCQATGDPRPKIVWNKKGKKVSN [I2S], 3.75; for FTCQATGDPRPKIVWNKKGKKVSN [I2T], 3.58. On to FECQATGDPRPKIVWNKKGKKVSN [I2E], for which the protein stability index is 4.52. Then FQCQATGDPRPKIVWNKKGKKVSN [I2Q], with 2.83.

Take FWCQATGDPRPKIVWNKKGKKVSN [I2W]: the protein stability index turned out to be 2.95.

FHCQATGDPRPKIVWNKKGKKVSN [I2H]: the protein stability index turned out to be 1.55. As for FCCQATGDPRPKIVWNKKGKKVSN [I2C], the protein stability index was found to be 2.29. For FKCQATGDPRPKIVWNKKGKKVSN [I2K] the value was 3.47; for FYCQATGDPRPKIVWNKKGKKVSN [I2Y], 3.01. For FMCQATGDPRPKIVWNKKGKKVSN [I2M] the value was 3.44; for FRCQATGDPRPKIVWNKKGKKVSN [I2R], 3.57; for FPCQATGDPRPKIVWNKKGKKVSN [I2P], 3.89. For FFCQATGDPRPKIVWNKKGKKVSN [I2F] the value was 3.85. For the variant FLCQATGDPRPKIVWNKKGKKVSN [I2L], the protein stability index amounted to 2.59.

(Values after the supplement of paper PMC10567573.)
